Test results as given in patent publication US20260007747A1 (VIVASOR, published 2026).

B1: PD-L1 CAR-ζFL (other)
chain: EVQLVESGAEVKKPGSSVKVSCKASGGTFSSYAISWVRQAPGQGLEWMGGIIPIFGTANYAQKFQGRVTITADESTSTAYMELSSLRSEDTAVYYCARAPYYYYYMDVWGQGTTVTVSSGGGGSGGGGSGGGGSQSALTQPASVSGSLGQSVTISCTGSSSDVGSYNLVSWYQQHPGKAPNLMIYDVSKRSGVSNRFSGSKSGNTASLTISGLQAEDEADYYCSSYTGISTVVFGGGTKLTVLAKPTTTPAPRPPTPAPTIASQPLSLRPEACRPAAGGAVHTRGLDFAPRKIEVMYPPPYLDNEKSNGTIIHVKGKHLCPSPLFPGPSKPFWVLVVVGGVLACYSLLVTVAFIIFWVKRGRKKLLYIFKQPFMRPVQTTQEEDGCSCRFPEEEEGGCELRVKFSRSADAPAYQQGQNQLYNELNLGRREEYDVLDKRRGRDPEMGGKPRRKNPQEGLYNELQKDKMAEAYSEIGMKGERRRGKGHDGLYQGLSTATKDTYDALHMQALPPR
B2: αPDL1-δ-TCRγδ receptor encoded by construct GD102 (other)
chain 1: EVQLVESGAEVKKPGSSVKVSCKASGGTFSSYAISWVRQAPGQGLEWMGGIIPIFGTANYAQKFQGRVTITADESTSTAYMELSSLRSEDTAVYYCARAPYYYYYMDVWGQGTTVTVSSGGGGSGGGGSGGGGSQSALTQPASVSGSLGQSVTISCTGSSSDVGSYNLVSWYQQHPGKAPNLMIYDVSKRSGVSNRFSGSKSGNTASLTISGLQAEDEADYYCSSYTGISTVVFGGGTKLTVLEVKTDSTDHVKPKETENTKQPSKSCHKPKAIVHTEKVNMMSLTVLGLRMLFAKTVAVNFLLTAKLFFL
chain 2: PIKTDVITMDPKDNCSKDANDTLLLQLTNTSAYYMYLLLLLKSVVYFAIITCCLLRRTAFCCNGEKS
B3: αPDL1-γ-TCRγδ receptor encoded by construct GD109 (other)
chain 1: EVQLVESGAEVKKPGSSVKVSCKASGGTFSSYAISWVRQAPGQGLEWMGGIIPIFGTANYAQKFQGRVTITADESTSTAYMELSSLRSEDTAVYYCARAPYYYYYMDVWGQGTTVTVSSGGGGSGGGGSGGGGSQSALTQPASVSGSLGQSVTISCTGSSSDVGSYNLVSWYQQHPGKAPNLMIYDVSKRSGVSNRFSGSKSGNTASLTISGLQAEDEADYYCSSYTGISTVVFGGGTKLTVLPIKTDVITMDPKDNCSKDANDTLLLQLTNTSAYYMYLLLLLKSVVYFAIITCCLLRRTAFCCNGEKS
chain 2: EVKTDSTDHVKPKETENTKQPSKSCHKPKAIVHTEKVNMMSLTVLGLRMLFAKTVAVNFLLTAKLFFL

Target: PD-L1 expressed on tumor cells (A549 wild type, MDA-MB-231, SK-MEL-5) (human, UniProt Q9NZQ7 19-290)
Experiment: cell-based or functional assay

Sequence of PD-L1 expressed on tumor cells (A549 wild type, MDA-MB-231, SK-MEL-5) (Q9NZQ7 19-290): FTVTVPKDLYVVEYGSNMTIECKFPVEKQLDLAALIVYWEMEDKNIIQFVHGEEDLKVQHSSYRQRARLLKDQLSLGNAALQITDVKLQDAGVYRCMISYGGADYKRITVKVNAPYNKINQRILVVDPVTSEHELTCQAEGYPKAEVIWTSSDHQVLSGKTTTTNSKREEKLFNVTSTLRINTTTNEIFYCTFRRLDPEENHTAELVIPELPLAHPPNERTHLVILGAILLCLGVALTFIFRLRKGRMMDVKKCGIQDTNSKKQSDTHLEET

Expansion of T cells on irradiated tumor cells, E:T 1:4, > 100 fold:
B1
B2
B3
